# Laboratory results taken from patent publication US20260317430 (published 2026).
# T1: mouse FGFR2b (mouse, UniProt P21803)
# T1 chain: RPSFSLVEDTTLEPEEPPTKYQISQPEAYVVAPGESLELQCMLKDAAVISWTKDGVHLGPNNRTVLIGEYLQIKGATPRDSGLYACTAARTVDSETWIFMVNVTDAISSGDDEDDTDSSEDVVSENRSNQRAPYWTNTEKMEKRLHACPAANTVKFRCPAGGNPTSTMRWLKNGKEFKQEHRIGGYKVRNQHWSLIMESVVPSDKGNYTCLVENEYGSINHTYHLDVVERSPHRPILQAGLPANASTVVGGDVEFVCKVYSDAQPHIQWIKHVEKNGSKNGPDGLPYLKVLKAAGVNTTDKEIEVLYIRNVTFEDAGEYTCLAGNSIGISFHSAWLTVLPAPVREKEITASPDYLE
# Tests used:
# mouse FGFR2b = target: T1, mouse FGFR2b; assay: BLI
# [1] = target: T2, human FGFR2b extracellular domain (human, UniProt P21802); assay: BLI
# T2 sequence (P21802 22-377): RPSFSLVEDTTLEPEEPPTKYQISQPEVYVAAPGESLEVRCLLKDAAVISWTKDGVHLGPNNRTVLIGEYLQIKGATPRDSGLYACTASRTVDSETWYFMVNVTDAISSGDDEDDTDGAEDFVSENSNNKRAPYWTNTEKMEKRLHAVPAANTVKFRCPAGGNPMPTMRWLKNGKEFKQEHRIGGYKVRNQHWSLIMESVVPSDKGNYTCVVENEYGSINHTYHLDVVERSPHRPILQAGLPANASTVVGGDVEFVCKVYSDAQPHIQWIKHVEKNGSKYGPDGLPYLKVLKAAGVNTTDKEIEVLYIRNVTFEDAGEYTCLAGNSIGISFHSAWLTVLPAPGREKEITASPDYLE
# [2] = target: human FGFR2b on KATO III cells (human, UniProt P21802); assay: FACS
# human FGFR2b on KATO III cells, sequence (P21802 22-377): as above
# [3] = target: T2, human FGFR2b extracellular domain; assay: ELISA
Kd (mouse FGFR2b),Kd [1],EC50 [2],EC50 [3],Binder
21.8 nM,4.5 nM,0.132 µg/mL,0.0156 µg/mL,"3E1 (antibody, V domains shown) VH: QVQLQQPGAEVVKPGASVKMSCKASGYTFTDYYIHWVKQTPGQGLEWIGAIYPDNGDTSYNQKFKVKATLTADKSSSTAYMQLSSLTSEDSAVYYCARAFTYWGQGTLVTVSA VL: DILITQSPASLSASVGETVTITCGASENIYGALNWYQRKQGKSPQLLIYGATNLADGMSSRFSGSGSGRQYSLKISSLHPDDVATYYCQNVLSTPYTFGGGTKLEIK"
8.71 nM,3.99 nM,0.2 µg/mL,0.0166 µg/mL,"3C7 (antibody, V domains shown) VH: EIQLQQSGAELVKPGASVKMSCKASGYIFRNYYIHWVKRTPGQGLEWIGAIYPDNGDTSYNQRFKVKATLTADTSSSTAYMQLSSLTSEDSAVYYCARAFTYWGQGTTLTVSS VL: DIQMIQSPASLSASVGETVTITCGASENIYGALNWYQRKQGKSPQLLIYGATNLADGMSSRFSGSGSGRQYSLKISSLHPDDVATYYCQNVLSTPYTFGGGTKLEIK"
39.6 nM,3.71 nM,0.236 µg/mL,0.0216 µg/mL,"3A3 (antibody, V domains shown) VH: QVQLQQSGAELVKPGASVKMSCKASGYTFTTYNIHWVRQTPGQGLEWIGLIYPDNGDTSYNQKFKAKATLTADKSSSTAYMHLSSLTSEDSAVYYCARGGFDYWGQGTTLTVSS VL: DIVMTQSHKFMSTSVGDRVSITCKASQDVNTDVSWYQQKPGQSPKLLIYSASYRYTGVPTRFTGSGSGTDFTFTISGVQAEDLADYYCQQHYNTPYTFGGGTRLEIK"
23 nM,6.67 nM,0.195 µg/mL,0.0276 µg/mL,"2B1 (antibody, V domains shown) VH: EVQLQQSGAELVKPGASVKMSCKASGYTFASYNLHWVKQTPGQGLEWIGLIYPENGDTSYNQKFKGKATLTADKSSSTAYIQLSSLTSEDSAVYFCARGGFDYWGQGTSLTVSS VL: DIQMIQSPASLSVSVGETVTITCRASENIYSNLAWYQQKQGKSPQLLVYNAKTLADGVPSRFSGSGSGTQYSLKINSLQPEDFGSYYCQHFWSTPYTFGGGTKLEIK"
74.9 nM,13.3 nM,0.133 µg/mL,0.0273 µg/mL,"1B8 (antibody, V domains shown) VH: QIQLQQSGAELVKPGASVKMSCKASGYTFASYNLHWVKQTPGQGLEWIGLIYPENGDTSYNQKFKGKATLTADTSSTTAYIQLSSLTSEDSAVYFCARGGFDYWGQGTSLTVSS VL: DIKMTQSPASLSASVGETVTITCGASENIYGALNWYQRKQGKSPQLLIYGATNLADGMSSRFSGSGSGRQYSLKISSLHPDDVATYYCQNVLSTPYTFGGGTKLEIK"
81.7 nM,8.58 nM,0.259 µg/mL,0.0369 µg/mL,"3D7 (antibody, V domains shown) VH: QVQLQQSGAELVKPGASVKMSCKASGYTFSFYNMHWVKRTPGRGLEWIGLIYPDNGDTSYNQKFKGKATLTADTSSSTAYMQLSSLTSEDSAVYYCARGGLDYWGQGTSLTVSS VL: EIVLTQSPASLAVSLGQRATISCKASQSVDYDGDSYMNWYQQKPGQPPKLLIYGISNRFSGVPDRFSGSGSGTDFTLKISTIKPEDLGMYYCLQGTHQPYTFGGGTKLEIK"
43.7 nM,8.41 nM,0.226 µg/mL,0.0128 µg/mL,"3H6 (antibody, V domains shown) VH: QVQLQQSGAELVKPGASVKMSCKASGYTFSFYNIHWVRQTPGQGLEWIGLIYPDNGDTSYNQKFKAKATLTADKSSSTAYMQLSSLTSEDSAVYYCARGGFDYWGQGTTLTVSS VL: DIQMTQSPASLSASVGETVTITCRASENIYSYLAWYQQKQGKSPQLLVYNAKTLAEGVPSRFSGSGSGTQFSLKINSLQPEDFGSYYCQHHYGTPYTFGGGTKLEMK"
10.7 nM,2.82 nM,0.292 µg/mL,0.0128 µg/mL,"3A12 (antibody, V domains shown) VH: EVQLQQSGAELVKPGASVKMSCKASGYTFSFYNVHWVRQTPGQGLEWIGLIYPDNGDTSYNQKFKAKATLTADKSSSAAYMQLSSLTSEDSAVYYCARGGFDYWGQGTSLTVSS VL: DIVMTQSHKFMSTSVGDRVNITCKASQDVSTAVAWYQQKPGQSPKLLIYSASYRYSGVPDRFTGSGSGTDFTFTISSVQAEDLAVYYCQQHYSTPYTFGGGTKLEMK"
36.1 nM,5.1 nM,0.105 µg/mL,0.0159 µg/mL,"3F5 (antibody, V domains shown) VH: EIQLQQSGAELVKPGASVKMSCKASGYTFRYYNMHWVKRTPGQGLEWIGLIYPDNGDTSYNQKFKGKATLTADTSSSTAYMQLSSLTSEDSAVYYCARGGLDYWGQGTTLTVSS VL: DIVLTQSPASLSASVGETVTITCGASENIYGALNWYQRKQGKSPQLLIYGATNLADGMSSRFSGSGSGRQYSLKISSLHPDDVATYYCQNVLSTPYTFGGGTKLEIK"
52.7 nM,8.18 nM,0.376 µg/mL,0.0273 µg/mL,"3E3 (antibody, V domains shown) VH: QVQLQQPGAVLVKPGASVRMSCKASGYTFPYYNVHWVKRTPGQGLEWIGLIYPDNGDTSYNQKFTGKATLTADTSSSTAYMQLSSLTSEDSAVYYCARGGLDYWGQGTTLTVSA VL: DVQITQSPASLSASVGETVTITCGASENIYGALNWYQRKQGKSPQLLIYGATNLADGMSSRFSGSGSGRQYSLKISSLHPDDVATYYCQNVLSTPYTFGGGTKLEIK"
27.3 nM,6.28 nM,0.168 µg/mL,0.0166 µg/mL,"3B4 (antibody, V domains shown) VH: EVQLQQSGADLVKPGASVKMSCKASGYTFSYYNMHWVRRTPGQGLEWIGLIYPDNGDTSYNQKFKGKATLTADTSSSTAYMQLSSLTSEDSAVYYCARGGLDYWGQGTTLTVSS VL: DIQMIQSPASMSASVGETVTITCGASENIYGALNWYQRKQGKSPQLLIYGATNLADGMSSRFSGSGSGRQYSLKISSLHPDDVATYYCQNVLSTPYTFGGGTKLEMK"
26 nM,6.13 nM,0.164 µg/mL,0.0156 µg/mL,"3F11 (antibody, V domains shown) VH: QVQLQQSGAELVKPGASVKMSCKASGYTFAPYNIHWVRQTPGQGLEWIGLIYPDNGDTSYNQKFKAKATLTADKSSSTAYMQLSSLTSEDSAVYYCARGGFDYWGQGTSLTVSS VL: DIVMTQSQKFMSTSVGDRVSVTCKASQNVGTNVAWYQQKPGQSPKALIYSASYRYSGVPDRFTGSGSGTDFTLTISNVQSEDLAEYFCQQHYSTPFTFGSGTKLEIK"
40.9 nM,4.35 nM,0.298 µg/mL,0.0154 µg/mL,"3E7 (antibody, V domains shown) VH: QVQLQQSGAELVKPGASVKMSCKASGYTFTIYNIHWVRQTPGQGLEWIGLIYPDNGDTSYNQKFKAKATLTADKSSSTAYMQLSSLTSEDSAVYYCARGGFDYWGQGTTLTVSS VL: NIVMTQSQKFMSTSVGDRVSVTCKASQNVGTNVAWYQQKPGQSPKALIYSASYRYSGVPDRFTGSGSGTDFTLTISGVQAEDLADYYCQQHYNTPYTFGGGTKLEIK"
52.5 nM,7.62 nM,0.159 µg/mL,0.00818 µg/mL,"3F10 (antibody, V domains shown) VH: EVQLQQSGAELVKPGASVKMSCKASGYTFSFYNIHWVRQTPGQGLEWIGLIYPDNGDTSYNQKFKAKATLTADKSSSTAYMQLSSLTSEDSAVYYCARGGFDYWGQGTTLTVSS VL: DVLMTQSPASLSASVGETVTITCGASENIYGALNWYQRKQGKSPQLLIYGATNLADGMSSRFSGSGSGRQYSLKISSLHPDDVATYYCQNVLSTPYTFGGGTKLEIK"
27.6 nM,4.51 nM,0.167 µg/mL,0.0154 µg/mL,"1D7 (antibody, V domains shown) VH: QIQLQQSGAELVKPGASVKMSCKASGYTFRYYNMHWVKRTPGQGLEWIGLIYPDNGDTSYNQKFKGKATLTADTSSSTAYMQLSSLTSEDSAVYYCARGGLDYWGQGTSLTVSS VL: DIQMTQSPSSMSASLGDRITITCQATQDIVKNLNWYQQKPGKPPSFLIYYATELAEGVPSRFSGSGSGSDYSLTISNLESEDFADYYCLQFYEFPLTFGAGTKLELK"
7.17 nM,3.48 nM,0.199 µg/mL,0.0278 µg/mL,"3A8 (antibody, V domains shown) VH: QVQLQQSGAELVKPGASVKMSCKASGYTFTIYNIHWVRQTPGQGLEWIGLIYPDNGDTSYNQKFKAKATLTADKSSSTAYMQLSSLTSEDSAVYYCARGGFDYWGQGTSLTVSS VL: DIVMTQSQKFMSTSVGDRVSVTCKASQNVGTNVAWYQQKPGQSPKALIYSASYRYSGVPDRFTGSGSGTDFTLTISNVQAEDLADYFCQQHYSTPYTFGGGTKLEMK"
21.7 nM,15 nM,0.136 µg/mL,0.0369 µg/mL,"3D6 (antibody, V domains shown) VH: QVQLQQSGAELVKPGASVKMSCKASGYTFRYYNMHWVKRTPGQGLEWIGLIYPDNGDTSYNQKFKGKATLTADTSSSTAYMQLSSLTSEDSAVYYCARGGLDYWGQGTSLTVSS VL: DIQMTQSPASLSVSVGETVTITCRASENIYSNLAWYQQKQGKSPQLLVYNAKTLADGVPSRFSGSGSGTQYSLKINSLQPEDFGSYYCQHFWSTPFTFGSGTKLELK"
9.95 nM,2.7 nM,0.253 µg/mL,0.0147 µg/mL,"3C9 (antibody, V domains shown) VH: EIQLQQSGAELVKPGASVKMSCKASGYIFRYYNMHWVKRTPGQGLEWIGLIYPDNGDTSYNQKFKGKATLTADTSSSTAYMQLSSLTSEDSAVYYCARGGLDYWGQGTTLTVSS VL: DIQMIQSPASLSASVGETVTITCGASENIYGALNWYQRKQGKSPQLLIYGATNLADGMSSRFSGSGSGRQYSLKISSLHPDDVATYYCQNVLSTPYTFGGGTKLEIK"
